The labels stand for the following.
B1: Pituitary-specific positive transcription factor 1, residues 130 to 198; numbered along this chain, P28069 (parent)
chain: RELEKFANEFKVRRIKLGYTQTNVGEALAAVHGSEFSQTTICRFENLQLSFKNACKLKAILSKWLEEAE

± gives the uncertainty stated by the source.

We go through 78 variants from the Human Domainome abundance scans (Beltran et al. 2025).

In this series the parent is B1. The series is described as follows: abundance fitness (aPCA) (normalised: wild type 0, dead -1); higher = more abundant; growth selection in yeast, the domain comes from the species named. The settings on record: Homo sapiens.
As for RELEKFANEFKVRRIKLGYTQTNVGEALAAVHGSEFSQTTICRFENLQLSFKNACKLKAILEKWLEEAE, the abundance fitness turned out to be 0.016 ± 0.087.
The figure for RELEKFANEFKVRRIKLGYTQTNVGEALAAVHGSEFSQTTICRFENLQLSFKNACKLKAILGKWLEEAE is -0.239 ± 0.11; for RELEKFANEFKVRRIKLGYTQTNVGEALAAVHGSEFSQTTICRFENLQLSFKNACKLKAILIKWLEEAE it is 0.001 ± 0.081; for RELEKFANEFKVRRIKLGYTQTNVGEALAAVHGSEFSQTTICRFENLQLSFKNACKLKAILCKWLEEAE it is -0.3 ± 0.062.
The figure for RELEKFANEFKVRRIKLGYTQTNVGEALAAVHGSEFSQTTICRFENLQLSFKNACKLKAILHKWLEEAE is -0.127 ± 0.12; for RELEKFANEFKVRRIKLGYTQTNVGEALAAVHGSEFSQTTICRFENLQLSFKNACKLKAILAKWLEEAE it is -0.015 ± 0.072.
In the case of RELEKFANEFKVRRIKLGYTQTNVGEALAAVHGSEFSQTTICRFENLQLSFKNACKLKAILFKWLEEAE, the abundance fitness was -0.059 ± 0.056.
The figure for RELEKFANEFKVRRIKLGYTQTNVGEALAAVHGSEFSQTTICRFENLQLSFKNACKLFAILSKWLEEAE is -0.933 ± 0.26; for RELEKFANEFKVRRIKLGYTQTNVGEALAAVHGSEFSQTTICRFENLQLSFKNACKLHAILSKWLEEAE it is -0.4 ± 0.14; for RELEKFANEFKVRRIKLGYTQTNVGEALAAVHGSEFSQTTICRFENLQLSFKNACKLGAILSKWLEEAE it is -0.652 ± 0.095.
The figure for RELEKFANEFKVRRIKLGYTQTNVGEALAAVHGSEFSQTTICRFENLQLSFKNACKLMAILSKWLEEAE is -0.151 ± 0.059; for RELEKFANEFKVRRIKLGYTQTNVGEALAAVHGSEFSQTTICRFENLQLSFKNACKLQAILSKWLEEAE it is -0.019 ± 0.088; for RELEKFANEFKVRRIKLGYTQTNVGEALAAVHGSEFSQTTICRFENLQLSFKNACKLYAILSKWLEEAE it is -0.511 ± 0.098.
RELEKFANEFKVRRIKLGYTQTNVGEALAAVHGSEFSQTTICRFENLQLSFKNACKLIAILSKWLEEAE: the abundance fitness was -0.984 ± 0.24.
Take RELEKFANEFKVRRIKLGYTQTNVGEALAAVHGSEFSQTTICRFENLQLSFKNACKLLAILSKWLEEAE: the abundance fitness was -0.848 ± 0.081.
Regarding RELEKFANEFKVRRIKLGYTQTNVGEALAAVHGSEFSQTTICRFENLQLSFKNACKLSAILSKWLEEAE, the abundance fitness is -0.58 ± 0.069.
Under RELEKFANEFKVRRIKLGYTQTNVGEALAAVHGSEFSQTTICRFENLQLSFKNACKLTAILSKWLEEAE stands -0.477 ± 0.072; under RELEKFANEFKVRRIKLGYTQTNVGEALAAVHGSEFSQTTICRFENLQLSFKNACKLPAILSKWLEEAE, -0.708 ± 0.17; under RELEKFANEFKVRRIKLGYTQTNVGEALAAVHGSEFSQTTICRFENLQLSFKNACKLDAILSKWLEEAE, -0.652 ± 0.26.
The figure for RELEKFANEFKVRRIKLGYTQTNVGEALAAVHGSEFSQTTICRFENLQLSFKNACKLAAILSKWLEEAE is -0.473 ± 0.07.
Under RELEKFANEFKVRRIKLGYTQTNVGEALAAVHGSEFSQTTICRFENLQLSFKNACKLEAILSKWLEEAE stands -0.738 ± 0.093; under RELEKFANEFKVRRIKLGYTQTNVGEALAAVHGSEFSQTTICRFENLQLSFKNACKLNAILSKWLEEAE, -0.619 ± 0.11.
Consider RELEKFANEFKVRRIKLGYTQTNVGEALAAVHGSEFSQTTICRFENLQLSFKNACKLWAILSKWLEEAE, for which the abundance fitness was -0.342 ± 0.11.
As to RELEKFANEFKVRRIKLGYTQTNVGEALAAVHGSEFSQTTICRFENLQLSFKNACKLRAILSKWLEEAE, the abundance fitness is -0.184 ± 0.067.
Under RELEKFANEFKVRRIKLGYTQTNVGEALAAVHGSEFSQTTICRFENLQLSFKNACKLKNILSKWLEEAE stands 0.078 ± 0.076; under RELEKFANEFKVRRIKLGYTQTNVGEALAAVHGSEFSQTTICRFENLQLSFKNACKLKGILSKWLEEAE, 0.059 ± 0.037.
The figure for RELEKFANEFKVRRIKLGYTQTNVGEALAAVHGSEFSQTTICRFENLQLSFKNACKLKWILSKWLEEAE is -0.61 ± 0.1.
Under RELEKFANEFKVRRIKLGYTQTNVGEALAAVHGSEFSQTTICRFENLQLSFKNACKLKEILSKWLEEAE stands 0.214 ± 0.063.
In the case of RELEKFANEFKVRRIKLGYTQTNVGEALAAVHGSEFSQTTICRFENLQLSFKNACKLKSILSKWLEEAE, the abundance fitness stood at 0.007 ± 0.042.
The figure for RELEKFANEFKVRRIKLGYTQTNVGEALAAVHGSEFSQTTICRFENLQLSFKNACKLKRILSKWLEEAE is -0.059 ± 0.044; for RELEKFANEFKVRRIKLGYTQTNVGEALAAVHGSEFSQTTICRFENLQLSFKNACKLKVILSKWLEEAE it is 0.116 ± 0.048.
Under RELEKFANEFKVRRIKLGYTQTNVGEALAAVHGSEFSQTTICRFENLQLSFKNACKLKKILSKWLEEAE stands 0.025 ± 0.062.
The figure for RELEKFANEFKVRRIKLGYTQTNVGEALAAVHGSEFSQTTICRFENLQLSFKNACKLKTILSKWLEEAE is 0.042 ± 0.069.
As to RELEKFANEFKVRRIKLGYTQTNVGEALAAVHGSEFSQTTICRFENLQLSFKNACKLKDILSKWLEEAE, the abundance fitness came to 0.094 ± 0.083.
The figure for RELEKFANEFKVRRIKLGYTQTNVGEALAAVHGSEFSQTTICRFENLQLSFKNACKLKPILSKWLEEAE is 0.381 ± 0.058; for RELEKFANEFKVRRIKLGYTQTNVGEALAAVHGSEFSQTTICRFENLQLSFKNACKLKMILSKWLEEAE it is -0.076 ± 0.064; for RELEKFANEFKVRRIKLGYTQTNVGEALAAVHGSEFSQTTICRFENLQLSFKNACKLKCILSKWLEEAE it is -0.084 ± 0.056.
RELEKFANEFKVRRIKLGYTQTNVGEALAAVHGSEFSQTTICRFENLQLSFKNACKLKQILSKWLEEAE: the abundance fitness is -0.045 ± 0.064.
Under RELEKFANEFKVRRIKLGYTQTNVGEALAAVHGSEFSQTTICRFENLQLSFKNACKLKIILSKWLEEAE stands 0.049 ± 0.064; under RELEKFANEFKVRRIKLGYTQTNVGEALAAVHGSEFSQTTICRFENLQLSFKNACKLKYILSKWLEEAE, -0.298 ± 0.099; under RELEKFANEFKVRRIKLGYTQTNVGEALAAVHGSEFSQTTICRFENLQLSFKNACKLKLILSKWLEEAE, -0.122 ± 0.046.
Consider RELEKFANEFKVRRIKLGYTQTNVGEALAAVHGSEFSQTTICRFENLQLSFKNACKLKAYLSKWLEEAE, for which the abundance fitness was -0.347 ± 0.14.
The figure for RELEKFANEFKVRRIKLGYTQTNVGEALAAVHGSEFSQTTICRFENLQLSFKNACKLKAALSKWLEEAE is -0.281 ± 0.073; for RELEKFANEFKVRRIKLGYTQTNVGEALAAVHGSEFSQTTICRFENLQLSFKNACKLKACLSKWLEEAE it is -0.365 ± 0.1; for RELEKFANEFKVRRIKLGYTQTNVGEALAAVHGSEFSQTTICRFENLQLSFKNACKLKAMLSKWLEEAE it is -0.239 ± 0.079.
Under RELEKFANEFKVRRIKLGYTQTNVGEALAAVHGSEFSQTTICRFENLQLSFKNACKLKAHLSKWLEEAE stands -0.437 ± 0.17; under RELEKFANEFKVRRIKLGYTQTNVGEALAAVHGSEFSQTTICRFENLQLSFKNACKLKAKLSKWLEEAE, -0.262 ± 0.1; under RELEKFANEFKVRRIKLGYTQTNVGEALAAVHGSEFSQTTICRFENLQLSFKNACKLKADLSKWLEEAE, -0.343 ± 0.11.
Under RELEKFANEFKVRRIKLGYTQTNVGEALAAVHGSEFSQTTICRFENLQLSFKNACKLKAPLSKWLEEAE stands -0.2 ± 0.08; under RELEKFANEFKVRRIKLGYTQTNVGEALAAVHGSEFSQTTICRFENLQLSFKNACKLKATLSKWLEEAE, -0.51 ± 0.08.
Regarding RELEKFANEFKVRRIKLGYTQTNVGEALAAVHGSEFSQTTICRFENLQLSFKNACKLKAQLSKWLEEAE, the abundance fitness is -0.559 ± 0.18.
RELEKFANEFKVRRIKLGYTQTNVGEALAAVHGSEFSQTTICRFENLQLSFKNACKLKAGLSKWLEEAE: the abundance fitness was -0.495 ± 0.091.
Under RELEKFANEFKVRRIKLGYTQTNVGEALAAVHGSEFSQTTICRFENLQLSFKNACKLKAELSKWLEEAE stands -0.567 ± 0.21; under RELEKFANEFKVRRIKLGYTQTNVGEALAAVHGSEFSQTTICRFENLQLSFKNACKLKASLSKWLEEAE, -0.568 ± 0.099; under RELEKFANEFKVRRIKLGYTQTNVGEALAAVHGSEFSQTTICRFENLQLSFKNACKLKALLSKWLEEAE, -0.135 ± 0.053.
Under RELEKFANEFKVRRIKLGYTQTNVGEALAAVHGSEFSQTTICRFENLQLSFKNACKLKANLSKWLEEAE stands -0.357 ± 0.14; under RELEKFANEFKVRRIKLGYTQTNVGEALAAVHGSEFSQTTICRFENLQLSFKNACKLKAWLSKWLEEAE, -0.611 ± 0.14.
The figure for RELEKFANEFKVRRIKLGYTQTNVGEALAAVHGSEFSQTTICRFENLQLSFKNACKLKAVLSKWLEEAE is -0.024 ± 0.084; for RELEKFANEFKVRRIKLGYTQTNVGEALAAVHGSEFSQTTICRFENLQLSFKNACKLKAFLSKWLEEAE it is -0.725 ± 0.22; for RELEKFANEFKVRRIKLGYTQTNVGEALAAVHGSEFSQTTICRFENLQLSFKNACKLKARLSKWLEEAE it is -0.346 ± 0.066.
RELEKFANEFKVRRIKLGYTQTNVGEALAAVHGSEFSQTTICRFENLQLSFKNACKVKAILSKWLEEAE: the abundance fitness came to 0.063 ± 0.038.
Under RELEKFANEFKVRRIKLGYTQTNVGEALAAVHGSEFSQTTICRFENLQLSFKNACKWKAILSKWLEEAE stands -0.642 ± 0.18.
The figure for RELEKFANEFKVRRIKLGYTQTNVGEALAAVHGSEFSQTTICRFENLQLSFKNACKYKAILSKWLEEAE is -0.156 ± 0.12; for RELEKFANEFKVRRIKLGYTQTNVGEALAAVHGSEFSQTTICRFENLQLSFKNACKTKAILSKWLEEAE it is -0.262 ± 0.064; for RELEKFANEFKVRRIKLGYTQTNVGEALAAVHGSEFSQTTICRFENLQLSFKNACKLKAITSKWLEEAE it is -0.778 ± 0.18.
Under RELEKFANEFKVRRIKLGYTQTNVGEALAAVHGSEFSQTTICRFENLQLSFKNACKLKAIRSKWLEEAE stands -1.04 ± 0.18.
For the variant RELEKFANEFKVRRIKLGYTQTNVGEALAAVHGSEFSQTTICRFENLQLSFKNACKLKAICSKWLEEAE, the abundance fitness was -0.379 ± 0.19.
As for RELEKFANEFKVRRIKLGYTQTNVGEALAAVHGSEFSQTTICRFENLQLSFKNACKLKAIYSKWLEEAE, the abundance fitness is -0.759 ± 0.13.
The figure for RELEKFANEFKVRRIKLGYTQTNVGEALAAVHGSEFSQTTICRFENLQLSFKNACKLKAIESKWLEEAE is -0.604 ± 0.18; for RELEKFANEFKVRRIKLGYTQTNVGEALAAVHGSEFSQTTICRFENLQLSFKNACKLKAIDSKWLEEAE it is -0.788 ± 0.28; for RELEKFANEFKVRRIKLGYTQTNVGEALAAVHGSEFSQTTICRFENLQLSFKNACKLKAIPSKWLEEAE it is -0.728 ± 0.3.
Under RELEKFANEFKVRRIKLGYTQTNVGEALAAVHGSEFSQTTICRFENLQLSFKNACKLKAIQSKWLEEAE stands -0.78 ± 0.18; under RELEKFANEFKVRRIKLGYTQTNVGEALAAVHGSEFSQTTICRFENLQLSFKNACKLKAIISKWLEEAE, -0.841 ± 0.24; under RELEKFANEFKVRRIKLGYTQTNVGEALAAVHGSEFSQTTICRFENLQLSFKNACKLKAISSKWLEEAE, -0.815 ± 0.14.
Under RELEKFANEFKVRRIKLGYTQTNVGEALAAVHGSEFSQTTICRFENLQLSFKNACKLKAIFSKWLEEAE stands -0.536 ± 0.12; under RELEKFANEFKVRRIKLGYTQTNVGEALAAVHGSEFSQTTICRFENLQLSFKNACKLKAIMSKWLEEAE, -0.491 ± 0.097.
For the variant RELEKFANEFKVRRIKLGYTQTNVGEALAAVHGSEFSQTTICRFENLQLSFKNACKLKAIGSKWLEEAE, the abundance fitness is -0.757 ± 0.11.
The figure for RELEKFANEFKVRRIKLGYTQTNVGEALAAVHGSEFSQTTICRFENLQLSFKNACKLKAIKSKWLEEAE is -0.572 ± 0.16.
